Values belong to the binder of their own block, whether it stands above or below them.
Assays:
[1] = target: T1, sIGF-1R(1-903) (human, UniProt P08069 31-933); assay: ITC series titration, C06 MAb first
T1 construct: also called soluble IGF-1R ectodomain
Procedure: (§1) The protein solutions were prepared as described above for the MAb binding experiments. All ITC experiments were performed on an ITC₂₀₀ microcalorimeter (MicroCal, LLC) at 25° C. […] IGF-1R bispecific antibodies. A four minute equilibration period was used between all injections with an initial delay of 60 seconds. Numerical integration of the data was performed using the ITC data analysis software supplied by MicroCal (Origin). ΔHA° (T) values were calculated based on the difference between the average heat liberated/absorbed during the binding phase of the injections and the average heat of dilution found once the receptor, IGF-1R, was saturated with MAb or BsAb.
Both the dimeric receptor and the bivalent MAbs contain two potential binding sites.

[2] = target: T1, sIGF-1R(1-903); assay: ITC, 25 °C, antibody into sIGF-1R(1-903)
Procedure: as §1, with “Isothermal Titration Calorimetry (ITC). […] The reagents were co-dialyzed against PBS, pH 7.2. The protein solutions were adjusted to the concentrations listed above by dilution using PBS dialysate. […] The” for “The”

[3] = target: T2, hIGF-1R-Fc mutant SD109 (Y482A, R483W) (human, UniProt P08069 31-933); assay: SPR, Fab over captured mutant
T2 construct: not shown: human IgG1 Fc, C-terminal tag
T2 sequence (P08069 31-933 Y512A/R513W): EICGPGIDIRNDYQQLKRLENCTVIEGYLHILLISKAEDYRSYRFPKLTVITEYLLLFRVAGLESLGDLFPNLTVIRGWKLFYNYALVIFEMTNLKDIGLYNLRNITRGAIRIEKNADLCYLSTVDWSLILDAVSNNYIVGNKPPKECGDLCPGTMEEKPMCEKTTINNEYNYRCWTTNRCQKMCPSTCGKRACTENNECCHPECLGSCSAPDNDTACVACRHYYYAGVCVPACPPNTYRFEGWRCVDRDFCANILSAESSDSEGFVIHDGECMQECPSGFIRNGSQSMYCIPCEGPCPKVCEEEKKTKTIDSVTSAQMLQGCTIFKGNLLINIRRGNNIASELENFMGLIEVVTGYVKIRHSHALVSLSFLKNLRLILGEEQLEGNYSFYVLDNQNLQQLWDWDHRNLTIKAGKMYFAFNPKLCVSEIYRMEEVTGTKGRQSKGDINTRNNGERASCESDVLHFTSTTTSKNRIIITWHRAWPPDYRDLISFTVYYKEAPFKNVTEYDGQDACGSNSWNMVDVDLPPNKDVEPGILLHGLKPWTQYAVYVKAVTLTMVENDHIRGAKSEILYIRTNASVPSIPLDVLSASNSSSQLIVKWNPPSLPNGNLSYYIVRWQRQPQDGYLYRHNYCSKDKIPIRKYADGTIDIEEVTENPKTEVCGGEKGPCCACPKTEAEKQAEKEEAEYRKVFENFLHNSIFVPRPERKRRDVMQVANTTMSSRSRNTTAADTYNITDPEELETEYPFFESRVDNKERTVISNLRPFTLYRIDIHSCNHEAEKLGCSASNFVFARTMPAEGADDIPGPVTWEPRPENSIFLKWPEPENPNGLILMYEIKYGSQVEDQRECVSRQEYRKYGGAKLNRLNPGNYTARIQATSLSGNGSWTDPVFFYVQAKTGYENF

[4] = target: T3, hIGF-1R-Fc mutant SD113 (E570A, I571T) (human, UniProt P08069 31-933); assay: SPR, Fab over captured mutant
T3 construct: not shown: human IgG1 Fc, C-terminal tag
T3 sequence (P08069 31-933 E600A/I601T): as the sequence (P08069 31-933 Y512A/R513W) above, with A482Y, W483R, E570A, I571T counted along it

[5] = target: T4, hIGF-1R-Fc mutant SD102 (E459A, S460A) (human, UniProt P08069 31-933); assay: SPR, Fab over captured mutant
T4 construct: not shown: human IgG1 Fc, C-terminal tag
T4 sequence (P08069 31-933 E489A/S490A): as the sequence (P08069 31-933 Y512A/R513W) above, with E459A, S460A, A482Y, W483R counted along it

T1 sequence (P08069 31-933): as the sequence (P08069 31-933 Y512A/R513W) above, with A482Y, W483R counted along it

ΔH° [1]: -21.9 kcal/mol
ΔH° [2]: -21.9 kcal/mol
B1: M13-C06 antibody (antibody, V domains shown)
VH: EVQLLESGGGLVQPGGSLRLSCAASGFTFSIYRMQWVRQAPGKGLEWVSGISPSGGTTWYADSVKGRFTISRDNSKNTLYLQMNSLRAEDTAVYYCARWSGGSGYAFDIWGQGTMVTVSS
VL: DIQMTQSPLSLSASVGDRVTITCQASRDIRNYLNWYQQKPGKAPKLLIYDASSLQTGVPSRFGGSGSGTDFSFTIGSLQPEDIATYYCQQFDSLPHTFGQGTKLEIK
notes: Fully human full-length antibody (ATCC PTA-7444); also called M13.C06.G4.P.agly; M13-C06.G4P.agly

binding result [3]: no binding (tested: up to 10 nM Fab)
binding result [4]: no binding (tested: up to 10 nM Fab)
binding result [5]: no binding (tested: up to 10 nM Fab)
B2: M13-C06 Fab (Fab, V domains shown)
VH: B1 VH
VL: B1 VL
notes: Fab made by enzymatic digestion of the IgG

— US20090130105A1 (Biogen, published 2009)
